Substrate: O=C(O)c1ccc(O)c(O)c1
Experiment: purified protein
Type: biochemical, Comamonas testosteroni
Details: pH 7.5, room temperature, anaerobically purified enzyme, dithionite-treated, O2 co-substrate

B1: PmdAB (protocatechuate 4,5-dioxygenase) (Comamonas testosteroni) (protein)
chain 1: MARITASVFTSHVPAIGAAMDMGKTQEAYWAPLFKGYDFSRQWMKDNKPDVIFLVYNDHATAFSLDCIPTFAIGTAAEFQPADEGWGPRPVPKVVGHPDLASHIAQSVIQQDFDLTIVNKMDVDHGLTVPLSLMCGEQDPKTGSWPCPVIPFAVNVVQYPVPTGQRCFNLGRAIRKAVESYDQDINVHIWGTGGMSHQLQGARAGLINKEWDNQFLDLLVENPHGLAQMPHIDYVREAGSEGIELVMWLIARGAMSDVDGPAPLPKVAHRFYHVPASNTAVGHLILENQ
chain 2: MALEKPYLDVPGTIIFDAEQSRKGYWLNQFCMSLMKAENRERFRADERAYLDEWAMTEEQKQAVLARDLNWCMRTGGNIYFLAKIGATDGKSFQQMAGSMTGMTEEEYRAMMMGGGRSAEGNRYVGEDGDAQAHHQPQGSAGNQNKEGN
notes: full-length, codon-optimized, N-terminal His6-PmdA co-expressed with PmdB in E. coli BL21(DE3); purified anaerobically; alpha2beta2 heterotetramer, nonheme Fe(II)
Question: With B1 as the protein, how does the Km read?
Answer: Its Km is 33.00 ± 12.0 µM.

Question: And the kcat?
Answer: The kcat was 107 ± 7.5 s⁻¹.

Question: And the kcat/Km?
Answer: Its kcat/Km is 3.3e+06 M⁻¹ s⁻¹.

Source: paper PMC11489326, “Characterization of lignin-degrading enzyme PmdC, which catalyzes a key step in the synthesis of polymer precursor 2-pyrone-4,6-dicarboxylic acid” (The Journal of Biological Chemistry, 2024)
